Reference: patent US9327008B2, “Cell-permeant peptide-based inhibitor of kinases” (Purdue Research Foundation, priority 2008, dated 2016)

How the values were obtained:
JAK3 = target: T1, JAK3 (Homo sapiens, UniProt P52333); assay: Millipore radiometric kinase activity assay, JAK3 (h); type: biochemical
T1 construct: purchased Millipore (assay service)
T1 sequence (P52333 1-1124): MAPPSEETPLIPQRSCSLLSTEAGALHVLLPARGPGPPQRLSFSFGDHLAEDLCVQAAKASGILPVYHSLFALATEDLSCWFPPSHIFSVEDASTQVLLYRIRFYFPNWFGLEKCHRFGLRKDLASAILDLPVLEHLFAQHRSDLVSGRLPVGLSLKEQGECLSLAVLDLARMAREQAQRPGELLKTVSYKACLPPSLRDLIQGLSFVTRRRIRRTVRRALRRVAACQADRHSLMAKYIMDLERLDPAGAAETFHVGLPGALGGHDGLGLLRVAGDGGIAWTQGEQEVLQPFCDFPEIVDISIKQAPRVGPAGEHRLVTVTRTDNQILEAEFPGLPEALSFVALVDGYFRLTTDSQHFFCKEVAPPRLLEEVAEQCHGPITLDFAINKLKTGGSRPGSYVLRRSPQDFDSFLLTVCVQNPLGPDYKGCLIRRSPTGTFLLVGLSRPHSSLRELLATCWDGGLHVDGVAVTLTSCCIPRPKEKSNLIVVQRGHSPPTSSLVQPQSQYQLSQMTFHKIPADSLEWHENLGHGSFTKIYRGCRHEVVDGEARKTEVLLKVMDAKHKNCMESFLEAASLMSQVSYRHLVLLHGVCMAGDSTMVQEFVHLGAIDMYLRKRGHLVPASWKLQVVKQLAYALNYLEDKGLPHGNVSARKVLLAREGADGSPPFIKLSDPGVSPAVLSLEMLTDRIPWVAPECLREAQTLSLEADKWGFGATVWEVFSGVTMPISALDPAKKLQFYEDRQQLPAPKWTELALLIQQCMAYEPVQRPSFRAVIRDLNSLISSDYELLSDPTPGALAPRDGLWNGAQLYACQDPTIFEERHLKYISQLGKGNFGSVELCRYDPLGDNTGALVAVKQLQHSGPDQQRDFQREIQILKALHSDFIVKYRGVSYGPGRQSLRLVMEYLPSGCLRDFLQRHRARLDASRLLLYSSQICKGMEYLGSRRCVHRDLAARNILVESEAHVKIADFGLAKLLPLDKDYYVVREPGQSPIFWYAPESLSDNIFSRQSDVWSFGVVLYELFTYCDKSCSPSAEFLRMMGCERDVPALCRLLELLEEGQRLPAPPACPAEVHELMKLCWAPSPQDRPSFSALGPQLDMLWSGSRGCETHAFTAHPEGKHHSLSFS
Experimental: (§1) A commercial radiometric assay service (Millipore, Billerica, Mass.) was used to test the specificity and potency of peptides containing a coupled transduction domain and therapeutic domain, hereinafter “complete peptides”). In these assays, if the kinase is not inhibited by an inhibitor peptide, a positively charged substrate is phosphorylated with a radiolabeled phosphate group from an ATP.
(§2) In a final reaction volume of 25 μL, JAK3 (h) (5-10 mU) is incubated with 8 mM MOPS pH 7.0, 0.2 mM EDTA, 500 μM […] [SEQ ID NO: 58], 10 mM MgAcetate and [γ-^33P-ATP] (specific activity approx. 500 cpm/pmol, concentration as required). The reaction is initiated by the addition of the MgATP mix. After incubation for 40 minutes at room temperature, the reaction is stopped by the addition of 5 μL of a 3% phosphoric acid solution. 10 μL of the reaction is then spotted onto a P30 filtermat and washed three times for 5 minutes in 75 mM phosphoric acid and once in methanol prior to drying and scintillation counting.
(§3) IC50 values for inhibitor peptides were determined using Millipore's IC50Profiler Express service. The IC50 value was estimated from a 10-point curve of one-half log dilutions. For peptides tested for specificity, the concentration of the peptides that inhibited approximately 95% of MK2 activity was chosen to profile against a battery of kinases related to MK2, cell viability, or human disease from MilliporeKinaseProfiler service. In both assays, compounds were supplied in dimethylsulfoxide (DMSO). Every kinase activity measurement was conducted in duplicate.
(§4) Therapeutic inhibitor peptides were assayed for activity against human kinases related to MK2, cell viability, or human disease. The assays were performed using concentrations of therapeutic inhibitor peptides that yielded 2% to 8% of normal MK2 activity. Error is reported as the standard deviation between 2 samples, and “c” is rat AMPK whereas all other kinases used are human kinases.

Pim-1 = target: T2, Pim-1 (Homo sapiens, UniProt P11309); assay: Millipore radiometric kinase activity assay, Pim-1 (h); type: biochemical
T2 construct: purchased Millipore (radiometric assay service)
T2 sequence (P11309 whole entry): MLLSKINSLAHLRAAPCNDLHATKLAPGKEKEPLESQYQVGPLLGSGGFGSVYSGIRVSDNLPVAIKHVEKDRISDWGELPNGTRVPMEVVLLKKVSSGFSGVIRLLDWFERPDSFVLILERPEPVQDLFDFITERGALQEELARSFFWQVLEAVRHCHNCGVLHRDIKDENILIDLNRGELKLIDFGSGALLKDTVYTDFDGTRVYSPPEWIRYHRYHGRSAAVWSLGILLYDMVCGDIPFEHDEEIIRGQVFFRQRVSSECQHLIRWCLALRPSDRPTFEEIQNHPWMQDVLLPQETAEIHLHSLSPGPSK
Experimental: as §1
as §2, with “μL, Pim-1” for “μL, JAK3”, “EDTA, 100” for “EDTA, 500”, “NO: 59],” for “NO: 58],”
as §3, §4

For WLRRIKAWLRRIKALNRQLGVAA, the “JAK3 Kinase Activity (%) (+SD %)” value (JAK3; peptide 30 μM) was 85 (5) %, the “JAK3 Kinase Activity (%) (+SD %)” value (JAK3; peptide 100 μM) was 102 (2) % and the “Pim-1 Kinase Activity (%) (+SD %)” value (Pim-1; peptide 30 μM) was 5 (1) %. The “Pim-1 Kinase Activity (%) (+SD %)” value (Pim-1; peptide 100 μM) was 1 (0) %.

KAFAKLAARLYRKALARQLGVAA was tested, and the “JAK3 Kinase Activity (%) (+SD %)” value (JAK3; peptide 100 μM) was 91 (8) % and the “Pim-1 Kinase Activity (%) (+SD %)” value (Pim-1; peptide 100 μM) was 1 (2) %.
